Laboratory results published in paper PMC8080076.

Molecular target: DEC205 (human (endogenous in blood DCs)) (UniProt O60449)
Test: flow cytometry on cells

Sequence of UniProt O60449 (O60449 28-1722): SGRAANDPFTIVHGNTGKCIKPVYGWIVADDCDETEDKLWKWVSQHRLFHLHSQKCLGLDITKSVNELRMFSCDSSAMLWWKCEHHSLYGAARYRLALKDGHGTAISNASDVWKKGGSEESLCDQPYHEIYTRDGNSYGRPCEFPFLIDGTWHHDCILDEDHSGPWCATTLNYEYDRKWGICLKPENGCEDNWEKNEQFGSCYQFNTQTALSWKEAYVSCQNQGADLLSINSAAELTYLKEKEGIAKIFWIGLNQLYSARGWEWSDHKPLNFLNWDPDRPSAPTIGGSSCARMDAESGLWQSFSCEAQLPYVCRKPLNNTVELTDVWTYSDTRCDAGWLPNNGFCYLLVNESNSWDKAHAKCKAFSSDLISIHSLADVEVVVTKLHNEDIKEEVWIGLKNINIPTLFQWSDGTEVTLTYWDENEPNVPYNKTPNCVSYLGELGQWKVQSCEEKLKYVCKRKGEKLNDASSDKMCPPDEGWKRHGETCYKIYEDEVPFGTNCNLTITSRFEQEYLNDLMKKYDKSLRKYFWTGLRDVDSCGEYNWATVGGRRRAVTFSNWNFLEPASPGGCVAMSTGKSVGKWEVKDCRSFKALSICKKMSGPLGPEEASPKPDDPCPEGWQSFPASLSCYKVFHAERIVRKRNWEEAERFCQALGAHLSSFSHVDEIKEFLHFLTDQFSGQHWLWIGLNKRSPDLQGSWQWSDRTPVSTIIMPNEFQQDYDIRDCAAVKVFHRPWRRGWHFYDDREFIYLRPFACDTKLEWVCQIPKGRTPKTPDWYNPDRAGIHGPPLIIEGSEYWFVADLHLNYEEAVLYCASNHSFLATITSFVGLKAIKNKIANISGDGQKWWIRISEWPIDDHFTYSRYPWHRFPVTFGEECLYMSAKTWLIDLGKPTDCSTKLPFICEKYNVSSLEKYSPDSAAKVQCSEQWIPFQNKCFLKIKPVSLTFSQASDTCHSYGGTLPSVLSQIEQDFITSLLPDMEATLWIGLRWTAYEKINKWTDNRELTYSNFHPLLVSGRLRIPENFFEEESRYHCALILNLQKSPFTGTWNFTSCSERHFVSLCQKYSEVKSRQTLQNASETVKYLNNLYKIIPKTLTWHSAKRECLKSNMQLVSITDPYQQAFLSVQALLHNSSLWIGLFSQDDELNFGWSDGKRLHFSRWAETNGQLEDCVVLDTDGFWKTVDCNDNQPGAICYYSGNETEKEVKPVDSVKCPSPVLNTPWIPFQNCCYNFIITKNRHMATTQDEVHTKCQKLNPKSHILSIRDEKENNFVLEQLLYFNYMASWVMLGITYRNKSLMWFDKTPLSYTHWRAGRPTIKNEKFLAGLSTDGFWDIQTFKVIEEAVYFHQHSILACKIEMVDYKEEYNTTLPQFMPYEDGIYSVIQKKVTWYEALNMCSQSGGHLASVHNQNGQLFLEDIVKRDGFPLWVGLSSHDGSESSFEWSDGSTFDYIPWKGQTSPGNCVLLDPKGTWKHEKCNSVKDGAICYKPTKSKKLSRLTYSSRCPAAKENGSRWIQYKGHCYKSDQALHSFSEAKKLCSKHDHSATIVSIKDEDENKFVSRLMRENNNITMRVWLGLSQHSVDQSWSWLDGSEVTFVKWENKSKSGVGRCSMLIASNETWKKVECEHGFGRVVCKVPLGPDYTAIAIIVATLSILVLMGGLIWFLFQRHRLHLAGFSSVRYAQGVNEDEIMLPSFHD

In the case of “FITC-labeled HDM-derived PDI, recombinant (enzyme)”, the percent of DEC205+ DCs bound by FITC-PDI is reported as over 50%.
